Like-named read-outs stand apart in the source and are kept apart here. One block for each molecule: values may come before it.
Columns and labels:
[1] = biological target: human FXa (American Diagnostica Inc.) (human) (UniProt P00742)
[2] = biological target: human FXa (American Diagnostica Inc.) (human) (UniProt P00742); remark: listed apart in the source
[3] = biological target: human FXa (American Diagnostica Inc.) (human) (UniProt P00742); remark: listed apart in the source
[4] = biological target: human FXa (American Diagnostica Inc.) (human) (UniProt P00742); remark: listed apart in the source
[5] = biological target: human FXa (American Diagnostica Inc.) (human) (UniProt P00742); remark: listed apart in the source
[6] = biological target: activated blood coagulation factor X (FXa) (Homo sapiens, UniProt P00742); conditions: background statement; cited from earlier work
Chain of activated blood coagulation factor X (FXa) (P00742 235-488 limits assumed): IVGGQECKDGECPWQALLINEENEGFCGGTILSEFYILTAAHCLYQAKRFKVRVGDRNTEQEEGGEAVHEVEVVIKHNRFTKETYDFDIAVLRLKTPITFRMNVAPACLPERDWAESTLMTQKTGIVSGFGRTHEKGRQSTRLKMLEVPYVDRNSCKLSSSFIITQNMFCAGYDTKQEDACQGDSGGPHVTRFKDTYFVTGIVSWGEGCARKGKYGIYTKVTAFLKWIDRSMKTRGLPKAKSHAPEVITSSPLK
Chain of activated blood coagulation factor X (FXa) (P00742 41-179 partner limits assumed): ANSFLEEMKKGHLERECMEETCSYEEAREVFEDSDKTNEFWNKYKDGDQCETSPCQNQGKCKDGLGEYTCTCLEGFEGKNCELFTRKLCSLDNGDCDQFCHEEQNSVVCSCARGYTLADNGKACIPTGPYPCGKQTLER

Chain of human FXa (American Diagnostica Inc.) (human) (P00742 41-488 limits assumed): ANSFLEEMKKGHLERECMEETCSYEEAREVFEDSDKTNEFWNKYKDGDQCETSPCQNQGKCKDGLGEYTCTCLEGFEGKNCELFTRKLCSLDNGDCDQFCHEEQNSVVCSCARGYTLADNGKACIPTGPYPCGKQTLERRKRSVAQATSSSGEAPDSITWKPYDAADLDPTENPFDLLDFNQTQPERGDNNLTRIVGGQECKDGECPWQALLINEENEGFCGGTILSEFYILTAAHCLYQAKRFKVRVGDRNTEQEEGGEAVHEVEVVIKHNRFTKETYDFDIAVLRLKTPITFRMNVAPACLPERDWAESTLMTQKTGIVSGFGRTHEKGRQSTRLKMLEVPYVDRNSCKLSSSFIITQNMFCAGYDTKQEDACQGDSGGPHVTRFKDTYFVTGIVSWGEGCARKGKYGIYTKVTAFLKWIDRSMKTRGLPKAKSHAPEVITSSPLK

human FXa-inhibiting activity (substrate S-2222, residual FXa activity) (times higher than polypeptide TN70) [1]: 5
Molecule: DDAACNLPIVRGPCRAFIKLWAFDAVKGKCVLFPYGGCQGNGNKFYSEK [polypeptide Q19K]

human FXa-inhibiting activity (substrate S-2222, residual FXa activity) (times higher than polypeptide AN68) [2]: 6
Molecule: AACNLPIVRGPCRAFIRLWAFDAVKGKCVLFPYGGCQGNGNKFYSEK [polypeptide Q19R]

human FXa-inhibiting activity (substrate S-2222, residual FXa activity) (times higher than polypeptide AN68) [3]: 10
Molecule: AACNLPIVRGPCRAFIRLWAFDAVKGKCVLFPYGGCQGNGNKFESEK [polypeptide Q19R/Y46E]

human FXa-inhibiting activity (substrate S-2222, residual FXa activity) (times higher than polypeptide AN68) [4]: 3
Molecule: AACNLPIVEGPCRAFIQLWAFDAVKGKCVLFPYGGCQGNGNKFESEK [polypeptide R11E/Y46E]

human FXa-inhibiting activity (substrate S-2222, residual FXa activity) (times higher than polypeptide AN68) [5]: 10
Molecule: AACNLPIVRGPCRAFIKLWAFDAVKGKCVLFPYGGCQGNGNKFESEK [polypeptide Q19K/Y46E]

B1: urinary trypsin inhibitor (protein, UniProt P02760 206-352, looked up)
Inter-alpha-trypsin inhibitor …: AVLPQEEEGSGGGQLVTEVTKKEDSCQLGYSAGPCMGMTSRYFYNGTSMACETFQYGGCMGNGNNFVTEKECLQTCRTVAACNLPIVRGPCRAFIQLWAFDAVKGKCVLFPYGGCQGNGNKFYSEKECREYCGVPGDGDEELLRFSN
modifications: Inter-alpha-trypsin inhibitor light chain
FXa-inhibiting activity [6]: hardly show such an activity

B2: HI-30: Bikunins (HI-30), natural protease inhibitor (protein, UniProt P02760 206-352, looked up)
Inter-alpha-trypsin inhibitor …: B1 Inter-alpha-trypsin inhibitor …
modifications: Inter-alpha-trypsin inhibitor light chain
FXa-inhibiting activity [6]: hardly show such an activity
